Laboratory results published in paper PMC4249980.

Molecular target: recombinant GST-BNIP3 protein (rat BNIP3) (rat)
Test: SDS-PAGE and Western blot; GST-BNIP3 incubated with isolated rat liver mitochondria for 1 hour at 37°C in calcium-free buffer; mitochondrial and supernatant fractions blotted with a BNIP3 antibody; 90 kD band

“recombinant GST-BNIP3 protein (rat BNIP3) (natural protein)” showed a stoichiometry N of 2.
